Test results: patent US20190375799A1 (Affibody, published 2019)
Where no end group is shown, it is not given here. The star is where a group is joined. Mal‑DOTA = maleimido-mono-amide-DOTA, O=C(O)CN1CCN(CC(=O)O)CCN(CC(=O)NCCN2C(=O)CC(*)C2=O)CCN(CC(=O)O)CC1; maleimide‑DOTA = maleimide-DOTA

How the values were obtained:
albumin from rat [1] = target: T1, albumin from rat (rat, UniProt P02770 25-608); experiment: SPR (Biacore 2000): rat albumin immobilised to 831 RU, PEP08296 injected at 40 nM for 5 min, then HBS-EP
T1 construct: also called RSA
Description: (§1) The albumin binding polypeptides were injected at a constant flow-rate of 50 μl/min for 5 minutes, followed by injection of HBS-EP for 60 minutes. The surfaces were regenerated with one injection of 25 μl HCl, 10 mM. All samples were run in duplicates.
(§2) After subtraction of reference surface and buffer injection, curves were fitted to a 1:1 (Langmuir) binding model using BIAevaluation software with correction for mass transfer and with RUmax set as a local parameter.

human serum albumin [2] = target: T2, human serum albumin (human, UniProt P02768 25-609); experiment: SPR (Biacore 2000): human albumin immobilised to 1130 RU, PEP08296 injected at 40 nM for 5 min, then HBS-EP
T2 construct: In the purification steps HSA-Sepharose (GE Healthcare) was used instead of ALBUCULT; also called HSA; ALBUCULT (Novozymes)
Description: as §1, §2

albumin from dog [3] = target: T3, albumin from dog (dog, UniProt P49822 25-608); experiment: SPR (Biacore 2000): dog albumin immobilised to 1053 RU, PEP08296 injected at 40 nM for 5 min, then HBS-EP
T3 construct: also called DSA
Description: as §1, §2

[4] = target: T4, albumin from cynomolgus monkey (cynomolgus monkey, UniProt A2V9Z4 25-608); experiment: SPR (Biacore 2000): cynomolgus albumin immobilised to 1046 RU, PEP08296 injected at 40 nM for 5 min, then HBS-EP
T4 construct: also called CSA
Description: as §1, §2

albumin from mouse [5] = target: T5, albumin from mouse (mouse, UniProt P07724 25-608); experiment: SPR (Biacore 2000): mouse albumin immobilised to 858 RU, PEP08296 injected at 40 nM for 5 min, then HBS-EP
T5 construct: also called MSA
Description: as §1, §2

human serum albumin [6] = target: T2, human serum albumin; experiment: SPR, Biacore 2000, HSA immobilised
[7] = target: T4, albumin from cynomolgus monkey; experiment: SPR (Biacore 2000): cynomolgus albumin immobilised to 1046 RU, PEP06923 injected at 40 nM for 5 min, then HBS-EP
Description: as §1, §2

albumin from mouse [8] = target: T5, albumin from mouse; experiment: SPR (Biacore 2000): mouse albumin immobilised to 858 RU, PEP06923 injected at 40 nM for 5 min, then HBS-EP
Description: as §1, §2

albumin from rat [9] = target: T1, albumin from rat; experiment: SPR (Biacore 2000): rat albumin immobilised to 831 RU, PEP06923 injected at 40 nM for 5 min, then HBS-EP
Description: as §1, §2

albumin from dog [10] = target: T3, albumin from dog; experiment: SPR (Biacore 2000): dog albumin immobilised to 1053 RU, PEP06923 injected at 40 nM for 5 min, then HBS-EP
Description: as §1, §2

[11] = target: T4, albumin from cynomolgus monkey; experiment: SPR (Biacore 2000): cynomolgus albumin immobilised to 1046 RU, PEP07986 injected at 40 nM for 5 min, then HBS-EP
Description: as §1, §2

T4 sequence (A2V9Z4 25-608 limits assumed): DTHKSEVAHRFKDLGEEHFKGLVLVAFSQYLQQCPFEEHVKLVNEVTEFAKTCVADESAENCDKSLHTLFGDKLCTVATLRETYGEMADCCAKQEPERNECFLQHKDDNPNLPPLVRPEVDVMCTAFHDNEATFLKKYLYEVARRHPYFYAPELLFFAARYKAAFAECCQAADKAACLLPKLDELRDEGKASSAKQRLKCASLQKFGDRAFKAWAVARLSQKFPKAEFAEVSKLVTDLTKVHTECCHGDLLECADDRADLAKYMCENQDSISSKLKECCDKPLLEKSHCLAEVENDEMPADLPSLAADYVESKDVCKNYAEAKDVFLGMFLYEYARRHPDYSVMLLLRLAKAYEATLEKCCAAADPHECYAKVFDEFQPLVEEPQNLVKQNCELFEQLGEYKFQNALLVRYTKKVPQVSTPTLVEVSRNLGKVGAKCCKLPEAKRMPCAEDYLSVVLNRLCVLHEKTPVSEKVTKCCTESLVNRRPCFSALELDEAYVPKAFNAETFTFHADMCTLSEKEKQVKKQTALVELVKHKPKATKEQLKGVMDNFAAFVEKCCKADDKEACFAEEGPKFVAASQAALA
T5 sequence (P07724 25-608 limits assumed): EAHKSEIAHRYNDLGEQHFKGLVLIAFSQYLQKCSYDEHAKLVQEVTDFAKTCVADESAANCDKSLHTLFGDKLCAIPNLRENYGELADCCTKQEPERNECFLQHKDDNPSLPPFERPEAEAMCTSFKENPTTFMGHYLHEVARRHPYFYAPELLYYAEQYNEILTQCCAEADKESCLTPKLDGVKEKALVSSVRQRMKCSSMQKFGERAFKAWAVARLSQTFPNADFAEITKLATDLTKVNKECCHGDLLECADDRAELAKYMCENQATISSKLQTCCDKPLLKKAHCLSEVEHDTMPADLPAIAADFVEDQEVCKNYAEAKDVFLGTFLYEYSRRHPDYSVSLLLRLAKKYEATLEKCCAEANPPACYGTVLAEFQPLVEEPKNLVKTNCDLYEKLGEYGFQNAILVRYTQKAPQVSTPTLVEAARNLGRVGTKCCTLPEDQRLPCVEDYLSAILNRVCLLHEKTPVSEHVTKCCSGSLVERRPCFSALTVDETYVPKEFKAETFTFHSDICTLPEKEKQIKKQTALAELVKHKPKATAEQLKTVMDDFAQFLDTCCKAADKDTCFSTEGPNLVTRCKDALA
T1 sequence (P02770 25-608 limits assumed): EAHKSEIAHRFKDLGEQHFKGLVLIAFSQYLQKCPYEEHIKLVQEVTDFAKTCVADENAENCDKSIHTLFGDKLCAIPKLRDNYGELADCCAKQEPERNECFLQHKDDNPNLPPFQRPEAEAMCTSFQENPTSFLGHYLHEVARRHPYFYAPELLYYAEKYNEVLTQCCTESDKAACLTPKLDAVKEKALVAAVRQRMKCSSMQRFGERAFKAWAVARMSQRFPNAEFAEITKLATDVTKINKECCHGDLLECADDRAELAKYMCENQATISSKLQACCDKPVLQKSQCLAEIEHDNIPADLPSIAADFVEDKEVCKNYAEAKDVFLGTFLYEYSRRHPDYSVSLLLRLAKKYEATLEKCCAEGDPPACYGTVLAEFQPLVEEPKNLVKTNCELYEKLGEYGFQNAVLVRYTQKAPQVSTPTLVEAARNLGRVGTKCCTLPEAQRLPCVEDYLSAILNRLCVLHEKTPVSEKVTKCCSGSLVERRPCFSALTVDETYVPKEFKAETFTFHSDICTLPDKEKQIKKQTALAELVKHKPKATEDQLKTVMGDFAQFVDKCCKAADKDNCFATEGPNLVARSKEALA
T3 sequence (P49822 25-608 limits assumed): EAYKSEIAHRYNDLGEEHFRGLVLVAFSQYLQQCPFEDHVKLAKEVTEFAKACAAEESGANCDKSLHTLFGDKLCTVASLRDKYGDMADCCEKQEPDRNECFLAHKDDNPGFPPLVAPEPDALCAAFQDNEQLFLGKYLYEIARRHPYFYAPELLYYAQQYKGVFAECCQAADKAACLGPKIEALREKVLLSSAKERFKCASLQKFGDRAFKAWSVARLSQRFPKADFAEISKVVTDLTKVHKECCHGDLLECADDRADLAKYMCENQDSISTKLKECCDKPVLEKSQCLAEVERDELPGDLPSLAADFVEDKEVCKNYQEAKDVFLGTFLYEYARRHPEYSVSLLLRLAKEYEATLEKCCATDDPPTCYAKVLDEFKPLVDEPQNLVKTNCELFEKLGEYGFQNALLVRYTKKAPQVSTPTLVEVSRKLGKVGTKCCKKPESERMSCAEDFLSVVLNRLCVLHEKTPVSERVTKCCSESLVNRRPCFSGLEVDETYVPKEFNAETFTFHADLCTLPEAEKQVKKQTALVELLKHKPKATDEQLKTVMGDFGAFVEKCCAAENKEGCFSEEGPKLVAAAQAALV

GSLAEAKEAANAELDC(Mal‑DOTA)YGVSDFYKRLIDKAKTVEGVEALKDAILAALPG (designed binder, also called DOTA-conjugated PEP08185) [PEP08296]: binds (albumin from rat [1]); binds (human serum albumin [2]); binds (albumin from dog [3]). GSLAEAKEAANAELDC(Mal‑DOTA)YGVSDFYKRLIDKAKTVEGVEALKDAILAALPG (designed binder, also called DOTA-conjugated PEP08185) [PEP08296]: binds [4]; binds (albumin from mouse [5]).

B1: PEP07975 (designed binder)
chain: ALASAKEAANAELDC(maleimide‑DOTA)YGVSDFYKRLIDKAKTVEGVEALKDAILAALP-NH2
notes: Made by solid phase peptide synthesis; also called DOTA-conjugated PEP07834; maleimide-DOTA-conjugated PEP07834-amide
B1: binds (human serum albumin [6]).

B2: PEP06923 (designed binder)
chain: GSSLAEAKVLANRELDKYGVSDFYKRLINKAKTVEGVEALKLHILAALP
notes: Expressed as MGSS-[PP###]; also called non-inventive polypeptide
B2: binds [7]; binds (albumin from mouse [8]); binds (albumin from rat [9]). B2: binds (albumin from dog [10]).

GSLAEAKEAANAELDSYGVSDFYKRLIDKAKTVEGVEALKDAILAALP (designed binder) [PEP07986]: binds [11].
